Test results taken from the nanobody polyreactivity screen of Harvey et al. (2022).

Assay: yeast display, Sf9 membrane polyspecificity reagent, FACS + sequencing; frameworks hold sequencing errors
Procedure, shortened: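 Galactose induction of a Saccharomyces cerevisiae BJ5465 synthetic nanobody display library ran 36–48 hours. The cells were then stained for 1 hour at 4 °C with 10% biotinylated, detergent-solubilized Sf9 membrane reagent, pulled down on streptavidin microbeads and FACS-sorted into low and high (top ~1%) gates on expression and reagent-binding fluorescence. Labels for polyreactivity follow the gate of origin.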
With “QDQLGESGGGLVQAGGSLRLICAASGRIFPYYAMAWYRQAAGKEREFVASITKRRGSTSYADSVKGRFTISRDNAKNTVYLQMHSLKPEDTAVYYCAARRGSGMVTYYGGDYWGQGTQVTVSS” the “polyreactivity (PSR sort gate)” value was “low polyreactivity”.
In the case of “QDQLGESGGGLVQAGGSLRLSCPASGFTVSNNVMGWSRQAPGKERELVADITWSGDGTYYADSVKGRFTISRDNAKKSVYLQMNSLKTEDTAVYYCNARYGKEYDYWGQGTQVTVSS”, the “polyreactivity (PSR sort gate)” value is reported as “low polyreactivity”.
With “QDQLLESGGGLVQAGGSLLLSCAASGSTFFDYAMGWYRQAPGKERELVAVISDGGTTTYADSVKGRFTISRDNAKNTVYLQMNSLKPEDTAVYYCAAENQDGLLVILGGYGYWGQGTQVTVSS” the “polyreactivity (PSR sort gate)” value was “low polyreactivity”.
For “QDQLLETGGGLVQAGGSLRLSCAASGSTSLVYAMGWYRQAPGKERELVADISWSGGSTYYTDSVKGRFTISRDNAKNTVYLQMNSLKPEDTAVYYCNGGTYSTSVPYPYKYWGQGTQVTVSS”, the “polyreactivity (PSR sort gate)” value was “high polyreactivity”.
For “QDQLVDSGGGIVQAGGILSLSCAASGRNIIYNAMGWYRQAPGKERELVAAINRSGVSTHYADSVKGRFTISRDNAKNTVYLQMTSLKPEDTAVYYCASTVYGARSYDYWGQGTQVTLSS”, the “polyreactivity (PSR sort gate)” value was “low polyreactivity”.
For “QDQLVDSGGGLLQAGGSLRLSCAASGSTFHPYAMGWYRQAPGKERELVAAITFSGGSTYADSVKGRFTISRDNAKNTVYIQMNSLKPEDTAVYYCAAEWWYWRGWRDYWGQGTQVTVSS”, the “polyreactivity (PSR sort gate)” value was “low polyreactivity”.
In the case of “QDQLVDSGGGLLQAGGSLRLSCAASGSTLSKYAMGWNRQAPGKERELVAAISQRGGSTYYADSVKGRFTISRDNAKYTVYLQMNSLKPEDTAVSYCNALQRRYGYWGQGTQVTESS”, the “polyreactivity (PSR sort gate)” value is reported as “high polyreactivity”.
For “QDQLVDSGGGLVKAGGNLRLSCPASGSTFDYNTMGWNIQEPGKESEMVAVITASGGSTYYADSVKGRFTISRDNAKNTVYLQMNSLKPEDTAVYYCAKDLYVSYYIGTCYYYWGQGTQVTVSS”, the “polyreactivity (PSR sort gate)” value was “low polyreactivity”.
In the case of “QDQLVDSGGGLVQAGGSLRLSCAASGFNFGYYAMGWYRQAPRKERELVAAISRSGGRTYYADSVKGRFTISRDNAKNTVYLQMNILNPEDTAVYYCNARHYLSAYDYWGQGTQVTVSS”, the “polyreactivity (PSR sort gate)” value is reported as “high polyreactivity”.
With “QDQLVDSGGGLVQAGGSLRLSCAASGRTFTVYAMGWYRQAPGKERELVAAISGSSGSTDYADSVKGRFTISRDNAKNTVYLQMNSLKPEDTAVYYCAKASSATRYVQLRQDYDYWGQGTQVTVSS” the “polyreactivity (PSR sort gate)” value was “low polyreactivity”.
For “QDQLVESAGGLLQAGGSLRLSCAASGSTFKYNAMGWYRQAPGKERELVDSITRGGNTNYADSVKGRFTISRDNAKNTVYLLMNSLKTEDTAFYYCAAQLMRDLRSPYSYNYWGQGTQVTVSS”, the “polyreactivity (PSR sort gate)” value was “low polyreactivity”.
In the case of “QDQLVESAGGLVQAGGSLRLICAASGSTFALYAMGWYRQAAGTERELVAAISRSGGRTYYADSVKGRFTISRDNPKNTVYLQMNSLKPDDTAVYYCAADFSRPGGLDESWGQGTQVTVSS”, the “polyreactivity (PSR sort gate)” value is reported as “high polyreactivity”.
For “QDQLVESAGGLVQAGGSLRLSCAASGRIFVFNAMGWYIQAPGKERELVAGINRGASTYYADSVKGRFTISRDNAKNTVYFQMNSLKPEDTAVYYCAADNFWWTKLYYWGQGTQVTVSS”, the “polyreactivity (PSR sort gate)” value was “high polyreactivity”.
In the case of “QDQLVESAGGLVQAGGSLRLSCAASVITFVRYVMGWYRQAPGKEREFVARIRWRGGSTNYADSVKGRFTISRDNAKNTVYLQMNSLKPEDTAVYYCNAVRRASSGYDYWGQGTQVTVSS”, the “polyreactivity (PSR sort gate)” value is reported as “high polyreactivity”.
In the case of “QDQLVESCGGLVQAGGSHRLTCAASGGTSWIYAMGWYRQAPRKARELVAVITWSGGSTYYADSVKGRFTISRDTAKNTVYLQMNSLKPEDTAVYYCATDYTGKWKDHYYYWGQGTQVTVSS”, the “polyreactivity (PSR sort gate)” value is reported as “low polyreactivity”.
In the case of “QDQLVESCGGLVQAGGSLRLSCAASGRTFYRYAMGWYIQAPGKERELVADITRRVGITHYADSVKGRFTISRDYAKNTVYLKMNSLKPEDTAVYYCAARKYGSRYRLKYDYWGQGTQVTVSS”, the “polyreactivity (PSR sort gate)” value is reported as “high polyreactivity”.
For “QDQLVESGAGLVQAGGSLRLSCAASGFNFYRYAMGWYREAPGKERELVATISVRGGTYYADSVKGRFTISRDNAKNTVYLQMNSLKPEDTAVYYCAARVHLWGDTLKFVRVGYWGQGTQVTVSS”, the “polyreactivity (PSR sort gate)” value was “low polyreactivity”.
For “QDQLVESGGCLVQAGGSLRLSCAASGRIIIGYVMGWYRQAPVKERELVATISYSGGSTYADSVKGRFTISRDNAKNTVYLLMNSLKPEDTAVYYCNALFAGHKYYTVTSKYDYWGQGTQVTLSS”, the “polyreactivity (PSR sort gate)” value was “high polyreactivity”.
For “QDQLVESGGGFVQAGGSLRLSCAASGITFPLYALGRYRQPPGKERELVAAISRNGGRTYYADSVKVRFTMSRDNAKNTVYLQMNSMKPEDTAVYYCAKVSRGSVSSPPDDYWGQGTQVTVSS”, the “polyreactivity (PSR sort gate)” value was “high polyreactivity”.
With “QDQLVESGGGFVQAGGSLRLSCAASGLTFWYYAMGWYRQATGKEVELVAANDWSGASTYYADSVKGRFTISRDNAKNTVYLQMISLQPEDTAVYYCNTVYYIGDDYWGQGTQVTVSS” the “polyreactivity (PSR sort gate)” value was “high polyreactivity”.
In the case of “QDQLVESGGGFVQARGSLRLSCAACGFIFYANAMGWYRQAPGKERELVAGISWSGTSTYYADSVKGRFTISRDNAKNTVYLQMNSLKPEDTAVYYCNRVFYHFDVDRYDYWGQGTQVTVSS”, the “polyreactivity (PSR sort gate)” value is reported as “low polyreactivity”.
With “QDQLVESGGGIVQAGGILRLSCASSGFIFRGYAMGWYRQAPGKEWELVAAINSGDSTNYADSVKGRFTISRDNAKNTVSLQMNSLKREDTAVYYCAASIYAALNGGEGYDYWGQGTQVTVSS” the “polyreactivity (PSR sort gate)” value was “low polyreactivity”.
In the case of “QDQLVESGGGIVQAGGRLRLSCAASGSIFRYYAMGWYRQAPGKERDLVAAINWDGGSTYYADSVKGRFTISRDNAKNTVYLQMNSLKPEDTAVYYCATTSRVYAYGYRTSNYWGQGTQVTVSS”, the “polyreactivity (PSR sort gate)” value is reported as “high polyreactivity”.
In the case of “QDQLVESGGGIVQAGGSLRLSCAASGRNFILNAMGLYRQAPGKERELVAAITWSGGGTYYADSVKGRFTISRDNAKNTVYLQMNSLKASDSAVYYCNRPAAVGEEDYWGQGTQVTVSS”, the “polyreactivity (PSR sort gate)” value is reported as “low polyreactivity”.
For “QDQLVESGGGIVQAGGSLRLSCAASGSTFPIYAMGWYRQAPGKERELVADITSTGSTDYADSVKGRFTISRDNAKNTVYLQMNSLKPEDTAVYYCAADYYYSAYFWSDFDYWGQGTQVTVSS”, the “polyreactivity (PSR sort gate)” value was “high polyreactivity”.
In the case of “QDQLVESGGGIVQAGGTLRLSCAASGRTIGGYDMGWDRQAPGKERQLVAAIRTGGRTNYADSVKGRFTISRDNAKNTVYLQLNSLKPEDTAVYYCNARRRIADPRAGIYDYCGQGTQVTVSS”, the “polyreactivity (PSR sort gate)” value is reported as “high polyreactivity”.
For “QDQLVESGGGLDQAGGSLRLSCAASGNTFWPYAMGWYRQAPGKESEFVAAITFRGGSTYYADSVKGRFTISRDNAKNTVYLQMNSLKPEDTAVYYCNAERGVWSGYFGYDYWGQGTQVTVSS”, the “polyreactivity (PSR sort gate)” value was “low polyreactivity”.
For “QDQLVESGGGLDQAGGSLRLSCAASGRIFKLYAMGWYRQAPGKERELVAAISKSGGNTYADSVKGRFTISRDNAKNTVYLQMNSLKPEETAVYYCAATVQSTSDPFDYWGQGTQVTVSS”, the “polyreactivity (PSR sort gate)” value was “low polyreactivity”.
For “QDQLVESGGGLFKAGGSLRLSCAASGFIFSHYAMGWYRQAPGKERELVADISRSGTSTYYADSVTGRFTISRDNAKNTVYLQMNSLKPEDTAVYYFAKEYFFRGFNYRYDYWGQVTQVTVSS”, the “polyreactivity (PSR sort gate)” value was “high polyreactivity”.
For “QDQLVESGGGLVHAGGSLRISCAASGRILYAYPMGWYRQAPGKERELVAAINWSGGSTYYADSVKGRFTISRDNAKNTVYLQMNSLKPEDTAVYYCNRVLDPTNKYYYWGQGTQVTVSS”, the “polyreactivity (PSR sort gate)” value was “high polyreactivity”.
In the case of “QDQLVESGGGLVPAVGSLRLTCAASGYTFWDYTMGLYRQAPGKERELGAAMSSSGSSTYYADSVKGRFTISRDNAKNTVYLQMNSLKPEDNAVYYCAAYSRRQWKYDYWGQGTHVTVSS”, the “polyreactivity (PSR sort gate)” value is reported as “high polyreactivity”.
In the case of “QDQLVESGGGLVQAGASLRLICAASGFIFPSYAMGWYRKAPGKERELVAAISWTGGTYYADSVKGRFTISRDNAKNTVYLQMNSLKPEDTAVYYGAVRYKRKGSGYRTNAYDYWGQGTQVSVSS”, the “polyreactivity (PSR sort gate)” value is reported as “high polyreactivity”.
For “QDQLVESGGGLVQAGASLRLSCADSGFTFTTNAMGWYRHAPGKERELVAAISFSGGTTYYADSVKGRFTISRDNAKNTVYLQMNRLKPEDTAVYYCAAQPGQAWWSTDHDDYWGQGTQVTVSS”, the “polyreactivity (PSR sort gate)” value was “low polyreactivity”.
With “QDQLVESGGGLVQAGCSLRLTCAASGSTFTSNAMGWYRQAPGKERYLVASISGSVGRTYYADSVKGRFTISRDNAKNTVYLQMNSLKPEDTAVYYCNDESRNLYSTQFDYWGQGTQVTVSS” the “polyreactivity (PSR sort gate)” value was “low polyreactivity”.
With “QDQLVESGGGLVQAGGRLRLSCAASGYIFAYNAMGRDRQAPGKERELVAAISYSGGRTYYAYSVKGRFTISRYIAKNTVYLQMKSLKPEVTAVYYCAAPFRVGAGPATYDYWGQGTQVTVSS” the “polyreactivity (PSR sort gate)” value was “high polyreactivity”.
With “QDQLVESGGGLVQAGGSHRLSCAASGLTLTDNALGWYRQAPGKERELVAAISQSGGRTSYADSVKGRFTISRDNAKNTVYLQMNSLKPEDTAVYYCNTRRGSVAKYGYWGQGTQVTVSS” the “polyreactivity (PSR sort gate)” value was “high polyreactivity”.
For “QDQLVESGGGLVQAGGSLGLRCAATGSTFTYYTMGWYRQAAGKERELVAAISRTTGSTYYADSVKGRFTISRDNAKNTVYLQMNSLKPEDTAVYYCAAQSYKILLYFIGTAGDGYWGQGTQVTVSS”, the “polyreactivity (PSR sort gate)” value was “low polyreactivity”.
With “QDQLVESGGGLVQAGGSLLLSCAASGSTFYDYVMGWYRQAPGKERELVADISSGGGTNYADSLKGRFTISRDNAKNTVYLQMNSLKPEDTAVYYCAAYRYFFWYEFVSWGQGTQVTVSS” the “polyreactivity (PSR sort gate)” value was “high polyreactivity”.
With “QDQLVESGGGLVQAGGSLPLSCAASANIFPLYAMGWYRQAPGKERELVAAITWSTTSTYYADSVKGRFTISRDNAKNTVYLQMNSLKPEDTAVYYCKAKTDESYYYSDYDYWVQGTQVTVSS” the “polyreactivity (PSR sort gate)” value was “low polyreactivity”.
For “QDQLVESGGGLVQAGGSLRISCAASGGTFKSYAMGWYREAPGKERELVATITRDGRTNYADSVKGRFTISRDNAKNTVYLQMNSLKPEDTAVYYCNADYWSVWIALEFTVDYWGQGTQVTVSS”, the “polyreactivity (PSR sort gate)” value was “low polyreactivity”.
In the case of “QDQLVESGGGLVQAGGSLRISCAASGSIFAWYAMAWYRESPGKERELVATITWSGGSTYYADSVKGRFTISRDNAKNTVYLQMNSLKPEDTAVYYCAAEVVGIWYDLWYQGDYWGQGTQVTVSS”, the “polyreactivity (PSR sort gate)” value is reported as “low polyreactivity”.
In the case of “QDQLVESGGGLVQAGGSLRISCAASGSTFIYNAMGWYRQAPGKERELVATITGRGSTYYAYSVKGRFTISRDNAKNTVYLQLNSLKPEDTAVYYCAATIFNSFYWRYGYWGQGSQVTVSS”, the “polyreactivity (PSR sort gate)” value is reported as “low polyreactivity”.
In the case of “QDQLVESGGGLVQAGGSLRITCAASGSIFSWYTMGRYRQAPGKEMELVAAISGCGSRTYYADSVKGRFTISRDIEKNTVYLQMNSLKPEDTALYYCNTVNTWSVYYAYDYWGQGTQVTVSS”, the “polyreactivity (PSR sort gate)” value is reported as “high polyreactivity”.
